# According to US20240084011A1 (NANTBIO, published 2024):
# Substitutions are numbered along the chain they refer to.
# T1: recombinant human CTLA-4 protein (human, UniProt P16410 36-161)
# T1 construct: Recombinant protein used as analyte in SPR/Octet; also called hCTLA-4; CD152
# T1 sequence (looked up): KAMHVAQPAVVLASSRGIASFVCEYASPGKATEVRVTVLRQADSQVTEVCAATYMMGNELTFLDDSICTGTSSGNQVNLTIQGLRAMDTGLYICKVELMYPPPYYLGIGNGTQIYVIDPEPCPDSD
# B1: IgG antibody 78-8D2 HC / 78-8 LC (antibody, V domains shown)
# VH: EVQLVESGGGLVQPGGSLRLSCAASGFTFSSYVMHWVRQAPGKGLEWVSAITWSGRGTYYADSVKGRFTISRDNSKNTLYLQMNSLRAEDTAVYYCARGRLFGLALYGEAFDVWGQGTLVTVSS
# VL: DIQMTQSPSSLSASVGDRVTITCQASKDISNYLNWYQQKPGKAPKLLIYDASNLETGVPSRFSGSGSGTDFTFTISSLQPEDIATYYCQQFNSFPLTFGQGTKVEIKR
# B2: IgG antibody 78-24D1V HC / 78-24 LC (antibody, V domains shown)
# VH: EVQLVESGGGLVQPGGSLRLSCAASGFTFTSYSMHWVRQAPGKGLEWVSGISGSGRSTSYADSVKGRFTISRDNSKNTLYLQMNSLRAEDTAVYYCARDLMAFNLVRAGGFDVWGQGTLVTVSS
# VL: B1 VL with K27Q, F91G, N92D, S93A, F94W, L96W
# B3: IgG antibody 78-8D4 HC / 78-8 LC (antibody, V domains shown)
# VH: B1 VH with R56G, A105V, L106R
# VL: B1 VL
# B4: IgG antibody 78-8D22 HC / 78-8 LC (antibody, V domains shown)
# VH: B1 VH with T52S, R56S, L106R
# VL: B1 VL
# B5: IgG antibody 78-24D17V HC / 78-24 LC (antibody, V domains shown)
# VH: B2 VH with T30S, Y32S, R56G, D99Y, A102S, A108T, G109S, G110W
# VL: B1 VL with K27Q, F91G, N92D, S93A, F94W, L96W
# B6: IgG antibody 78-24D22V HC / 78-24 LC (antibody, V domains shown)
# VH: B2 VH with T30P, R56W
# VL: B1 VL with K27Q, F91G, N92D, S93A, F94W, L96W
# Columns and labels:
# [1] = molecular target: T2, recombinant mouse CTLA-4 protein (mouse, UniProt P09793 36-161); assay: SPR (Pioneer FE) or Octet (Red96e), 37 C; IgG captured by anti-human Fc or AHC sensor, mCTLA-4 as analyte
# T2 construct: Recombinant protein used as analyte in SPR/Octet; also called murine CTLA-4; mCTLA-4
# From the text: (§1) All values shown in Table 5 are ×10⁻⁹ M. Antibodies were captured on the chip surface using anti-human Fc antibody (SPR) or AHC sensor (Octet).
# [2] = molecular target: T1, recombinant human CTLA-4 protein; assay: SPR (Pioneer FE) or Octet (Red96e), 37 C; IgG captured by anti-human Fc or AHC sensor, hCTLA-4 as analyte
# From the text: as §1
# [3] = molecular target: T2, recombinant mouse CTLA-4 protein; assay: SPR (Pioneer FE) or Octet (Red96e), 25 C; IgG captured by anti-human Fc or AHC sensor, mCTLA-4 as analyte
# From the text: as §1
# [4] = molecular target: T1, recombinant human CTLA-4 protein; assay: SPR (Pioneer FE) or Octet (Red96e), 25 C; IgG captured by anti-human Fc or AHC sensor, hCTLA-4 as analyte
# From the text: as §1
Binder,Kd [1],Kd [2],Kd [3],Kd [4]
B1,400 pM,670 pM,320 pM,410 pM
B2,230 pM,1500 pM,180 pM,1600 pM
B3,270 pM,390 pM,270 pM,390 pM
B4,530 pM,440 pM,390 pM,460 pM
B5,330 pM,–,340 pM,–
B6,270 pM,1300 pM,190 pM,1400 pM
